{"source": "patent US20200155714A1", "about": "“DUAL-TARGET IMAGING MOLECULAR PROBE, PREPARATION METHOD THEREFOR, AND APPLICATIONS THEREOF” (PEKING UNION MEDICAL COLLEGE HOSPITAL, CHINESE ACADEMY OF …, priority 2017, published 2020)", "set-up": "species or system mice", "details": "mouse, in vivo", "excerpt": "{circumflex over (4)} Biodistribution of ^68Ga-NOTA-3PEG4-TATE-RGD in Healthy Mice\nThere was small amount of uptake in the heart, liver and lungs, which decreased quickly over time.", "data": [{"smiles": "CC(O)[C@@H]1NC(=O)[C@H](CCCCN)NC(=O)[C@@H](Cc2c[nH]c3ccccc23)NC(=O)[C@H](Cc2ccc(O)cc2)NC(=O)[C@@H](NC(=O)[C@@H](Cc2ccccc2)NC(=O)COCCOCCOCCOCCNC(=O)C(CCC(=O)NCCOCCOCCOCCOCC(=O)NCCCC[C@@H]2NC(=O)[C@@H](Cc3ccc(O)cc3)NC(=O)[C@H](CC(=O)O)NC(=O)CNC(=O)[C@H](CCCNC(=N)N)NC2=O)NC(=O)COCCOCCOCCOCCNC(=S)Nc2ccc(CC3CN(CC(=O)O)CCN(CC(=O)O)CCN3CC(=O)O)cc2)CSSC[C@@H](C(=O)N[C@H](C(=O)O)[C@@H](C)O)NC1=O", "note": "(stereo partly drawn) [^68Ga-NOTA-3PEG4-TATE-RGD, metal not drawn]", "values": [{"measurement": "clearance from blood, heart and liver", "result": "cleared from the blood, heart and liver faster"}, {"measurement": "distribution in brain tissues / blood-brain barrier passage", "result": "could not pass through the blood-brain barrier"}, {"measurement": "route of excretion", "result": "mainly excreted through the kidneys"}]}]}
